The target in one experiment is T1, VLA4 (Homo sapiens, UniProt P05556+P13612).
T1 construct: endogenous in cells; host or cells: Ramos cells
Nature of the experiment: Inhibition of VLA4-dependent adhesion of Ramos cells to BSA-CS1. It counts as cell-based. To be noted: Ramos cells, BSA-CS1 coated wells, 2 mM MnCl2, 30 minutes at room temperature; read-out: IC50. The essentials:
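BCECF-AM-labelled Ramos cells in Tris buffer pH 7.4 with 2 mM MnCl2 were added with compound to wells coated with BSA-conjugated Cys-Tyr-CS1 peptide (1 μg/mL). Cells and compound were incubated for 30 min at room temperature, in triplicate. Inhibition was quantified from bound fluorescence against no-compound controls, with uncoated wells used for nonspecific binding.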

Experiment [1] addresses VLA-4 (alpha4beta1 integrin) (UniProt P13612). In words: Ramos/BSA-CS1 adhesion inhibition.
Experiment [2] addresses T2, VLA-4 (alpha4beta1 integrin) (UniProt P13612 34-1032; P05556 21-798, limits assumed).
T2 construct: whole, on cells; also called very late antigen-4; CD49d/CD29
Nature of the experiment: Ramos/BSA-CS1 adhesion inhibition. The method, then:
Following labelling, the cells were washed twice in assay buffer (24 mM TRIS, 137 mM NaCl, 2.7 mM KCl, pH 7.4, containing 0.1 BSA and 2mM glucose) to remove any cations originating from the culture medium. The cells were then resuspended in assay buffer to 4 ×10^6 cells/mL and 2 mM MnCl_2 was added to upregulate VLA4 on the surface of the cells.
Immediately prior to running the assay, we removed the BSA blocking solution from the 96-well plates and washed the wells with 100 μL of assay buffer. We then added to each well 25 μL of test cell adhesion inhibitory compound at 2×the final concentration and 25 μL of the labelled Ramos cells. […] Each concentration of compound was tested in triplicate. The compound and cells are allowed to incubate for 30 minutes at room temperature.
Percent binding is calculated by the formula: […]

Data on 23 molecules can be found in patent publication US6596687B1, “Cell adhesion inhibitors” (Biogen, Inc., priority 1995, dated 2003).

Numbered stars: 1 amine (or outer) side, 2 acyl side, 3 side chain; on linkers, the order of the positions; unused ones are H or OH. Square brackets hold non-standard residues; d marks the D form. Peptide text beside a SMILES is read from it. * marks the point of attachment. 2‑MPUPA = 4-(N′-(2-methylphenyl)urea)phenylacetyl, Cc1ccccc1NC(=O)Nc1ccc(CC(=O)*)cc1; X2 = O=C(Cc1ccc(N[*:1])cc1)[*:2]; NH(2-F-phenyl) = Fc1ccccc1N*; 2‑MPUB = not defined here; PhAc = O=C(Cc1ccccc1)*; CO = O=C([*:1])[*:2]; NHPh = c1ccc(N*)cc1; Ahx = NCCCCCC(=O)O; Bn = c1ccc(C*)cc1; NHiBu = CC(C)CN*

T2 sequence (P13612 34-1032 limits assumed, chain 1 of 2): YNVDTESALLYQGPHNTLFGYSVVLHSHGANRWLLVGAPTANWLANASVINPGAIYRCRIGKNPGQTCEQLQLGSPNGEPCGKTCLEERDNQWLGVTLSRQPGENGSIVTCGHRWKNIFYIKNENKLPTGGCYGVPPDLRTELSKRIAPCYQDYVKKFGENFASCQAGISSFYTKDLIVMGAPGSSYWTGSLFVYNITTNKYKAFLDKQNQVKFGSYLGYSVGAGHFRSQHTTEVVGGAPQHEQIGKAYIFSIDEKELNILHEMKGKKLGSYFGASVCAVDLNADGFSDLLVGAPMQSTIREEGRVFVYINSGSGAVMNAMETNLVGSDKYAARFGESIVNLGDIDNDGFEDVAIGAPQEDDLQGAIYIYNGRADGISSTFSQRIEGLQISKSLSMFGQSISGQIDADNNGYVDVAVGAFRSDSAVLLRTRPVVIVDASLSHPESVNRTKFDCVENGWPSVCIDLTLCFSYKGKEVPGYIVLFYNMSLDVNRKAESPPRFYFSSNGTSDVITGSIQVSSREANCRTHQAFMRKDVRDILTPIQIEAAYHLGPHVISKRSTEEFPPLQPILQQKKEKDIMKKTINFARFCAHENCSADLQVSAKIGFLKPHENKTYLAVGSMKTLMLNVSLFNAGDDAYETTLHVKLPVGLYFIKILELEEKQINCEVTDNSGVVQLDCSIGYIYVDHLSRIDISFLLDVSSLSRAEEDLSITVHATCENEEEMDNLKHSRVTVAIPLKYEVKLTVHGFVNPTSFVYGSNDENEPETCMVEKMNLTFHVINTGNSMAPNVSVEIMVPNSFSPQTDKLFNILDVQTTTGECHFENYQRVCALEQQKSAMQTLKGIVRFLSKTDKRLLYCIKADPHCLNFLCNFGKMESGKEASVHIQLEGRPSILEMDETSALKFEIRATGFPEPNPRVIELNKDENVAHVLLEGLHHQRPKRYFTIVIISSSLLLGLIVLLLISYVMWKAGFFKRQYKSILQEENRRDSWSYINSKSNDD
T2 sequence (P05556 21-798 limits assumed, chain 2 of 2): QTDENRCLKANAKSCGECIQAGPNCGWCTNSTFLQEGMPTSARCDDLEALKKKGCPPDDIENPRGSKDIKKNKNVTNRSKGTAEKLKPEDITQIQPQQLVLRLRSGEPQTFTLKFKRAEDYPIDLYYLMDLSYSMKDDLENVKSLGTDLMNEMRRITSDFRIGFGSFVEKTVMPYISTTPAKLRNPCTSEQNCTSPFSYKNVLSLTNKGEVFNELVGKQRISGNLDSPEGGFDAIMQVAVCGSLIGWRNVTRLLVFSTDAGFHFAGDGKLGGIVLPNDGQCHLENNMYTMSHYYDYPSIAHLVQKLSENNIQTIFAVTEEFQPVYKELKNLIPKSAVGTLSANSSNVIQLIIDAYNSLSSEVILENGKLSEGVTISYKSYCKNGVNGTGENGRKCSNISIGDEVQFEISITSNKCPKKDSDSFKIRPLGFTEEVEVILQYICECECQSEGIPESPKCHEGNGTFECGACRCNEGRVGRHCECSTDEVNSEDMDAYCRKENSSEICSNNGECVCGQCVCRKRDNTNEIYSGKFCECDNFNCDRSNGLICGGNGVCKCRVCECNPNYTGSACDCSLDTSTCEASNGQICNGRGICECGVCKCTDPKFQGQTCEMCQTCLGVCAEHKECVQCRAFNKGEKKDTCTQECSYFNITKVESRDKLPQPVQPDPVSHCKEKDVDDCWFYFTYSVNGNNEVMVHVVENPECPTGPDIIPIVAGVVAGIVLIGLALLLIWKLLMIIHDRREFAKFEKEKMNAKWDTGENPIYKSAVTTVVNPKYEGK
T1 sequence (P13612 34-1032): as the sequence (P13612 34-1032 limits assumed, chain 1 of 2) above
T1 sequence (P05556 21-798): as the sequence (P05556 21-798 limits assumed, chain 2 of 2) above
VLA-4 (alpha4beta1 integrin) (UniProt P13612), sequence (P13612 34-1032 limits assumed, chain 1 of 2): as the sequence (P13612 34-1032 limits assumed, chain 1 of 2) above
VLA-4 (alpha4beta1 integrin) (UniProt P13612), sequence (P05556 21-798 limits assumed, chain 2 of 2, further chain): as the sequence (P05556 21-798 limits assumed, chain 2 of 2) above

Turning to `CC(C)CNC(=O)[C@@H]1CCCN1C(=O)[C@@H](NC(=O)[C@H](CC(=O)O)NC(=O)[C@H](CC(C)C)NC(=O)Cc1ccc(NC(=O)Nc2ccccc2)cc1)C(C)C` [Compound 328] ({NHPh-CO}-[X2]LDVP-NHiBu), the half-inhibitory concentration (IC50) at VLA4 was under 0.05 µM.

With `CC(C)CNC(=O)[C@H](CC(=O)O)NC(=O)[C@@H]1CCCN1C(=O)CCc1ccc(O)cc1` [Compound 331], on VLA4, the IC50 is over 10 µM.

As to `CC(C)C[C@H](NC(=O)Cc1ccc(NC(=O)Nc2ccccc2F)cc1)C(=O)N[C@@H](CC(=O)O)C(=O)N[C@H](C(=O)N1CCC[C@H]1C(=O)O)C(C)C` [Compound 347] ({NH(2-F-phenyl)-CO}-[X2]LDVP-OH), the concentration for half-maximal inhibition (IC50) on VLA4 is under 0.05 µM.

Regarding `CNC(=O)[C@@H](NC(=O)[C@H](CC(=O)O)NC(=O)[C@H](CC(C)C)N(C)C(=O)CCCc1ccccc1)C(C)C` [Compound 348], on VLA4, the IC50 is over 10 µM.

For the molecule `CNC(=O)[C@@H](NC(=O)[C@H](CC(=O)O)NC(=O)[C@H](CO)NC(=O)Cc1ccccc1)C(C)C` [Compound 349] (HELM PEPTIDE1{[O=C(Cc1ccccc1)[*:2]].S.D.V.[CN[*:1]]}$$$$V2.0), the IC50 at VLA4 is over 10 µM.

Take `CNC(=O)[C@@H](NC(=O)[C@H](CC(=O)O)NC(=O)[C@H](CCCCN)NC(=O)Cc1ccccc1)C(C)C` [Compound 350] (HELM PEPTIDE1{[O=C(Cc1ccccc1)[*:2]].K.D.V.[CN[*:1]]}$$$$V2.0): the half-inhibitory concentration (IC50) at VLA4 is over 10 µM.

With `CNC(=O)[C@H](COCc1ccccc1)NC(=O)[C@H](CC(=O)O)NC(=O)[C@H](CC(C)C)NC(=O)Cc1ccccc1` [Compound 352] (PhAc-Leu-Asp-Ser(Bn)-NHMe), the IC50 at VLA4 is over 10 µM.

For the molecule `CNC(=O)[C@H](COCc1ccccc1)NC(=O)[C@H](CC(=O)O)NC(=O)[C@H](CC(C)C)NC(=O)c1ccc2ccccc2n1` [Compound 353], on VLA4, the IC50 was over 10 µM.

On to `CCCCNC(=O)[C@@H](NC(=O)[C@H](CC(=O)O)NC(=O)[C@H](CC(C)C)NC(=O)OC(C)(C)C)[C@@H](C)O` [Compound 354] (HELM PEPTIDE1{[CC(C)(C)OC(=O)[*:2]].L.D.T.[CCCCN[*:1]]}$$$$V2.0), for which the IC50 on VLA4 is over 10 µM.

B1: Compound 343 (peptide)
peptide: H-[dP][dV][dD][dL]-{2‑MPUB}
modifications: reading uncertain
B1 registered an IC50 in experiment [1] of over 10 µM.

B2: Compound 338 (peptide)
peptide: LDVPST
HELM: PEPTIDE1{[Cc1ccccc1NC(=O)Nc1ccc(CC(=O)[*:2])cc1].L.D.V.P.S.T}$$$$V2.0
SMILES: Cc1ccccc1NC(=O)Nc1ccc(CC(=O)N[C@@H](CC(C)C)C(=O)N[C@@H](CC(=O)O)C(=O)N[C@H](C(=O)N2CCC[C@H]2C(=O)N[C@@H](CO)C(=O)N[C@H](C(=O)O)[C@@H](C)O)C(C)C)cc1
With B2, the IC50 in experiment [2] was under 0.05 µM.

B3: Compound 2 (peptide)
peptide: {3‑methoxy‑4‑(N'-phenylurea)phenylacetyl}-MDVP-OH
B3 registered an IC50 in experiment [2] of under 0.05 µM.

B4: Compound 146 (peptide)
peptide: {4‑(N'-2-hydroxyphenylurea)phenylacetyl}-MDVP-OH
Take B4: in experiment [2], the 50% inhibitory concentration (IC50) was under 0.05 µM.

B5: Compound 186 (peptide)
peptide: LDVM
HELM: PEPTIDE1{[O=C(c1ccc2ccccc2n1)[*:2]].L.D.V.M}$$$$V2.0
SMILES: CSCC[C@H](NC(=O)[C@@H](NC(=O)[C@H](CC(=O)O)NC(=O)[C@H](CC(C)C)NC(=O)c1ccc2ccccc2n1)C(C)C)C(=O)O
Molecule B5 showed an IC50 in experiment [2] of over 10 µM.

B6: Compound 202 (peptide)
peptide: {2‑MPUPA}-K(Ahx)DVP-OH
On to B6, for which the 50% inhibitory concentration (IC50) in experiment [2] fell in the range of 0.05 to 10 µM.

B7: Compound 315 (peptide)
peptide: MDVP
HELM: PEPTIDE1{[Cc1ccccc1NC(=O)Nc1ccc(CC(=O)[*:2])cc1].M.D.V.P}$$$$V2.0
SMILES: CSCC[C@H](NC(=O)Cc1ccc(NC(=O)Nc2ccccc2C)cc1)C(=O)N[C@@H](CC(=O)O)C(=O)N[C@H](C(=O)N1CCC[C@H]1C(=O)O)C(C)C
For B7, in experiment [2], the IC50 was under 0.05 µM.

B8: Compound 167 (peptide)
peptide: LDVM
HELM: PEPTIDE1{[CC(C)(C)OC(=O)[*:2]].L.D.V.M.[CO[*:1]]}$$$$V2.0
SMILES: COC(=O)[C@H](CCSC)NC(=O)[C@@H](NC(=O)[C@H](CC(=O)O)NC(=O)[C@H](CC(C)C)NC(=O)OC(C)(C)C)C(C)C
For the molecule B8, in experiment [2], the IC50 was over 10 µM.

B9: Compound 168 (peptide)
peptide: LDVM
HELM: PEPTIDE1{[O=C(c1ccc2ccccc2n1)[*:2]].L.D.V.M.[CO[*:1]]}$$$$V2.0
SMILES: COC(=O)[C@H](CCSC)NC(=O)[C@@H](NC(=O)[C@H](CC(=O)O)NC(=O)[C@H](CC(C)C)NC(=O)c1ccc2ccccc2n1)C(C)C
Consider B9, for which the IC50 in experiment [2] lay in the range of 0.05 to 10 µM.

B10: Compound 153 (peptide)
peptide: FLDV
HELM: PEPTIDE1{[O=C(c1ccccc1)[*:2]].F.L.D.V}$$$$V2.0
SMILES: CC(C)C[C@H](NC(=O)[C@H](Cc1ccccc1)NC(=O)c1ccccc1)C(=O)N[C@@H](CC(=O)O)C(=O)N[C@H](C(=O)O)C(C)C
On to B10, for which, in experiment [2], the IC50 was over 10 µM.

B11: Compound 337 (peptide)
peptide: {2‑MPUPA}-LDVPS-OH
B11: the IC50 in experiment [2] was under 0.05 µM.

B12: Compound 341 (peptide)
peptide: LPVD
HELM: PEPTIDE1{[Cc1ccccc1NC(=O)Nc1ccc(CC(=O)[*:2])cc1].L.P.V.D}$$$$V2.0
SMILES: Cc1ccccc1NC(=O)Nc1ccc(CC(=O)N[C@@H](CC(C)C)C(=O)N2CCC[C@H]2C(=O)N[C@H](C(=O)N[C@@H](CC(=O)O)C(=O)O)C(C)C)cc1
In turn, B12 registered a 50% inhibitory concentration (IC50) in experiment [2] of over 10 µM.

B13: Compound 339 (peptide)
peptide: VLPD
HELM: PEPTIDE1{[Cc1ccccc1NC(=O)Nc1ccc(CC(=O)[*:2])cc1].V.L.P.D}$$$$V2.0
SMILES: Cc1ccccc1NC(=O)Nc1ccc(CC(=O)N[C@H](C(=O)N[C@@H](CC(C)C)C(=O)N2CCC[C@H]2C(=O)N[C@@H](CC(=O)O)C(=O)O)C(C)C)cc1
Regarding B13, the concentration for half-maximal inhibition (IC50) in experiment [2] is over 10 µM.

B14: Compound 152 (peptide)
peptide: Ac-FLDV-OH
In turn, B14 came in with a concentration for half-maximal inhibition (IC50) in experiment [2] of over 10 µM.
